Measurements taken from US20210189359A1 (UNIVERSITY OF KENTUCKY RESEARCH FOUNDATION, published 2021).
Positions count from the first letter of the chain named. Names may count otherwise.

B1: CocH-LAF6 (Fc fusion)
chain: EDDIIIATKNGKVRGMNLTVFGGTVTAFLGIPYAQPPLGRLRFKKPQSLTKWSDIWNATKYANSCCQNIDQSFPGFHGSEMWNPNTDLSEDCLYLNVWIPAPKPKNATVLIWIYGGGFQTGTSSLHVYDGKFLARVERVIVVSMNYRVGALGFLALPGNPEAPGNMGLFDQQLALQWVQKNIAAFGGNPKSVTLFGESSGAASVSLHLLSPGSHSLFTRAILQSGSANAPWAVTSLYEARNRTLNLAKLTGCSRENETEIIKCLRNKDPQEILLNEAFVVPYGTPLGVNFGPTVDGDFLTDMPDILLELGQFKKTQILVGVNKDEGTWFLVGGAPGFSKDNNSIITRKEFQEGLKIFFPGVSEFGKESILFHYTDWVDDQRPENYREALGDVVGDYNFICPALEFTKKFSEWGNNAFFYYFEHRSSKLPWPEWMGVMHGYEIEFVFGLPLERRDNYTKAEEILSRSIVKRWANFAKYGNPNETQNNSTSWPVFKSTEQKYLTLNTESTRIMTKLRAQQCRFWTSFFPKVVEPKSCDKTHTCPPCPAPELLGGPSVFLFPPKPKDTLYITREPEVTCVVVDVSHEDPEVKFNWYVDGVEVHNAKTKPREEQYNSTYRVVSVLTVLHQDWLNGKEYKCKVSNKALPAPIEKTISKAKGQPREPQVYTLPPSREEMTKNQVSLTCLVKGFYPSDIAVEWESNGQPENNYKTTPPVLDSDGSFFLYSKLTVDKSRWQQGNVFSCSVMHEALHNHYTQKSLSLSPGK
notes: Direct fusion without a linker; also called CocH3-LAF6; CocH3(529)-Fc(M6)
B2: CocH-LAF7 (Fc fusion)
chain: B1 chain with P285A
notes: Direct fusion without a linker; also called CocHl-LAF7; CocH1-LAF7
B3: CocH-LAF8 (Fc fusion)
chain: B1 chain with P285Q
notes: Direct fusion without a linker; also called CocH2-LAF8; A199S/F227A/P285Q/S287G/A328W/Y332G/A530V/M567Y/S569T/T571E/D671E/L673M mutant of BChE(529)-Fc

The binders below were run against T1, human FcRn (human, UniProt P55899 24-297; P61769 21-119, limits assumed) (assay: in vitro binding to human FcRn at pH 6; method not described).
T1 construct: the construct, its source and whether b2m was present are not described; also called neonatal Fc receptor
T1 sequence (P55899 24-297 limits assumed, chain 1 of 2): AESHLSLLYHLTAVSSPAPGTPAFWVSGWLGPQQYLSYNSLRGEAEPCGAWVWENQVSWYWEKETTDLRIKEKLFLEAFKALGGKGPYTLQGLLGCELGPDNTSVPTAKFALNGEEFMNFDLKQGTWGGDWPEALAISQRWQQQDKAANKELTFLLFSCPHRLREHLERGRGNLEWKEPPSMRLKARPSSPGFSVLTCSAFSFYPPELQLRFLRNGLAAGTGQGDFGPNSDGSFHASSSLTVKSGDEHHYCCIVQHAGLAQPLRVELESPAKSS
T1 sequence (P61769 21-119 limits assumed, chain 2 of 2): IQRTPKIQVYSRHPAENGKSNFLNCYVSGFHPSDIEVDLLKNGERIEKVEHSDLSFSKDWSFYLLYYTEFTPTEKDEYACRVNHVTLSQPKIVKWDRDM

| Binder | Kd |
| --- | --- |
| B1 | 43 nM |
| B2 | 43 nM |
| B3 | 43 nM |
